# Measured values from patent US20180289766A1 (HONG KONG BAPTIST UNIVERSITY, published 2018).
# Positions of bridges follow the written chain, without caps; N, C: chain ends. No end group written: not given here.
# T1: human galanin receptor 1 (hGalR1) (human, UniProt P47211 1-349)
# T1 sequence (looked up): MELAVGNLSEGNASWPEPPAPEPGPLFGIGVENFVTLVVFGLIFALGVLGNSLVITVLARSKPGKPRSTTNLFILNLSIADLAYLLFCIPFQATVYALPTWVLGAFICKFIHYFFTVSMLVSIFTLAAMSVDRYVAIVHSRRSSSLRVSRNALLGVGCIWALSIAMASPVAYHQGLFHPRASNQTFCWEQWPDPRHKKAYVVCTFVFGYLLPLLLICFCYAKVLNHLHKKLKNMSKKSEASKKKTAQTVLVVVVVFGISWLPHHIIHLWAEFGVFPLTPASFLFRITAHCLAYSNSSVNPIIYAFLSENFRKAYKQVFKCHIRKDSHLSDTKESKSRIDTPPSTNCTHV
# T2: human galanin receptor 3 (hGalR3) (human, UniProt O60755 1-368)
# T2 sequence (looked up): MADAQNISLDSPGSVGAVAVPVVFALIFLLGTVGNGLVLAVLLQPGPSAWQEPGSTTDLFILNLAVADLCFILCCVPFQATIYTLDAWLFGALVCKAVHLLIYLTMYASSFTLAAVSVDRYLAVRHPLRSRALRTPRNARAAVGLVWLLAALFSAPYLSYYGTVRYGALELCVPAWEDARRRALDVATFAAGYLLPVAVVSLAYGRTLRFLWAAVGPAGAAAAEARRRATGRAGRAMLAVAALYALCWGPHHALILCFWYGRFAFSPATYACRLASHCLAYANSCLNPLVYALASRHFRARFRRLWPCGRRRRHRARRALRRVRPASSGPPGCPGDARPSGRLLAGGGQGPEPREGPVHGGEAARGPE
# T3: human galanin receptor 2 (hGalR2) (human, UniProt O43603 1-387)
# T3 sequence (looked up): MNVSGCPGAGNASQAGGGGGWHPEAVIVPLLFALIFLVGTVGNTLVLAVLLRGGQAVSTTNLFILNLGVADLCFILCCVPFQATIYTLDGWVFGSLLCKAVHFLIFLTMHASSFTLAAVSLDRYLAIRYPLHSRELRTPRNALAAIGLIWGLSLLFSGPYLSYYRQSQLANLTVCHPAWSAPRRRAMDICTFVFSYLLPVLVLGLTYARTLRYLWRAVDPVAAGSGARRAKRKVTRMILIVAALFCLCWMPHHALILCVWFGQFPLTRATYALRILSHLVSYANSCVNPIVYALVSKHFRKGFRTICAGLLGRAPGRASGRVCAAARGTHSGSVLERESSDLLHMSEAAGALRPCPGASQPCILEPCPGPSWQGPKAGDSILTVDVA
# B1: LH201 (Ac) (peptide)
# peptide: Ac-CWTLNSAGYLLGCHAV-NH2
# modifications: disulfide 1-13
# B2: LH201 (peptide)
# peptide: CWTLNSAGYLLGCHAV-NH2
# modifications: disulfide 1-13; N-terminus assumed
# SMILES: CC(C)C[C@@H]1NC(=O)[C@H](CC(C)C)NC(=O)[C@H](Cc2ccc(O)cc2)NC(=O)CNC(=O)[C@H](C)NC(=O)[C@H](CO)NC(=O)[C@H](CC(N)=O)NC(=O)[C@H](CC(C)C)NC(=O)[C@H]([C@@H](C)O)NC(=O)[C@H](Cc2c[nH]c3ccccc23)NC(=O)[C@@H](N)CSSC[C@@H](C(=O)N[C@@H](Cc2c[nH]cn2)C(=O)N[C@@H](C)C(=O)N[C@H](C(N)=O)C(C)C)NC(=O)CNC1=O
# B3: LH101 (peptide)
# peptide: CWTPQAMLYLKGCQ-NH2
# modifications: disulfide 1-13; N-terminus assumed
# SMILES: CSCC[C@@H]1NC(=O)[C@H](C)NC(=O)[C@H](CCC(N)=O)NC(=O)[C@@H]2CCCN2C(=O)[C@H]([C@@H](C)O)NC(=O)[C@H](Cc2c[nH]c3ccccc23)NC(=O)[C@@H](N)CSSC[C@@H](C(=O)N[C@@H](CCC(N)=O)C(N)=O)NC(=O)CNC(=O)[C@H](CCCCN)NC(=O)[C@H](CC(C)C)NC(=O)[C@H](Cc2ccc(O)cc2)NC(=O)[C@H](CC(C)C)NC1=O
# B4: LH101 (Ac) (peptide)
# peptide: Ac-CWTPQAMLYLKGCQ-NH2
# modifications: disulfide 1-13
# SMILES: CSCC[C@@H]1NC(=O)[C@H](C)NC(=O)[C@H](CCC(N)=O)NC(=O)[C@@H]2CCCN2C(=O)[C@H]([C@@H](C)O)NC(=O)[C@H](Cc2c[nH]c3ccccc23)NC(=O)[C@@H](NC(C)=O)CSSC[C@@H](C(=O)N[C@@H](CCC(N)=O)C(N)=O)NC(=O)CNC(=O)[C@H](CCCCN)NC(=O)[C@H](CC(C)C)NC(=O)[C@H](Cc2ccc(O)cc2)NC(=O)[C@H](CC(C)C)NC1=O
# B5: hSPX (C4) (peptide)
# peptide: NWTCQAMLYLKGAQ-NH2
# B6: LH102 (peptide)
# peptide: NWTCQAMLYLKGCQ-NH2
# modifications: disulfide 4-13; N-terminus assumed
# SMILES: CSCC[C@@H]1NC(=O)[C@H](C)NC(=O)[C@H](CCC(N)=O)NC(=O)[C@@H](NC(=O)[C@@H](NC(=O)[C@H](Cc2c[nH]c3ccccc23)NC(=O)[C@@H](N)CC(N)=O)[C@@H](C)O)CSSC[C@@H](C(=O)N[C@@H](CCC(N)=O)C(N)=O)NC(=O)CNC(=O)[C@H](CCCCN)NC(=O)[C@H](CC(C)C)NC(=O)[C@H](Cc2ccc(O)cc2)NC(=O)[C@H](CC(C)C)NC1=O
# B7: hSPX (C1) (peptide)
# peptide: CWTPQAMLYLKGAQ-NH2
# B8: hSPX (C13) (peptide)
# peptide: NWTPQAMLYLKGCQ-NH2
# B9: human galanin (1-16), hGAL (1-16) (peptide)
# peptide: GWTLNSAGYLLGPHAV-NH2
# B10: human galanin (hGAL) (peptide)
# peptide: GWTLNSAGYLLGPHAVGNHRSFSDKNGLTS-NH2
# Molecular target: T1, human galanin receptor 1 (hGalR1)
# Assay: cell-based or functional assay
"Emax, receptor activation (SRE-Luc assay)","EC50, receptor activation (SRE-Luc assay) [nM]",Binder
0.22 relative to hGAL Emax,–,B1
0.35 relative to hGAL Emax,> 10000,B2

# Molecular target: T2, human galanin receptor 3 (hGalR3)
# Assay: cell-based or functional assay
"EC50, receptor activation (SRE-Luc assay) [nM]","Emax, receptor activation (SRE-Luc assay)",Binder
1560,1.04 relative to hSPX Emax,B3
390,1 relative to hSPX Emax,B4
770,0.91 relative to hSPX Emax,B5
1500,0.87 relative to hSPX Emax,B6
–,0.2 relative to hSPX Emax,B1
> 10000,0.55 relative to hSPX Emax,B2
360,1 relative to hSPX Emax,B7
630,0.88 relative to hSPX Emax,B8
> 10000,0.45 relative to hSPX Emax,B9
–,0.68 relative to hSPX Emax,B10

# Molecular target: T3, human galanin receptor 2 (hGalR2)
# Assay: cell-based or functional assay
"EC50, receptor activation (SRE-Luc assay) [nM]","Emax, receptor activation (SRE-Luc assay)",Binder
1190,1.09 relative to hSPX Emax,B3
380,0.97 relative to hSPX Emax,B4
470,0.98 relative to hSPX Emax,B5
1430,1.08 relative to hSPX Emax,B6
480,1.16 relative to hSPX Emax,B1
120,1 relative to hSPX Emax,B2
510,1.05 relative to hSPX Emax,B7
370,0.87 relative to hSPX Emax,B8
220,1.02 relative to hSPX Emax,B9
